B1: recombinant EstA of P. aeruginosa PAO1, 6xHis-tagged (natural protein)
chain: APSPYSTLVVFGDSLSDAGQFPDPAGPAGSTSRFTNRVGPTYQNGSGEIFGPTAPMLLGNQLGIAPGDLAASTSPVNAQQGIADGNNWAVGGYRTDQIYDSITAANGSLIERDNTLLRSRDGYLVDRARQGLGADPNALYYITGGGNDFLQGRILNDVQAQQAAGRLVDSVQALQQAGARYIVVWLLPDLGLTPATFGGPLQPFASQLSGTFNAELTAQLSQAGANVIPLNIPLLLKEGMANPASFGLAADQNLIGTCFSGNGCTMNPTYGINGSTPDPSKLLFNDSVHPTITGQRLIADYTYSLLSAPWELTLLPEMAHGTLRAYQDELRSQWQADWENWQNVGQWRGFVGGGGQRLDFDSQDSAASGDGNGYNLTLGGSYRIDEAWRAGVAAGFYRQKLEAGAKDSDYRMNSYMASAFVQYQENRWWADAALTGGYLDYDDLKRKFALGGGERSEKGDTNGHLWAFSARLGYDIAQQADSPWHLSPFVSADYARVEVDGYSEKGASATALDYDDQKRSSKRLGAGLQGKYAFGSDTQLFAEYAHEREYEDDTQDLTMSLNSLPGNRFTLEGYTPQDHLNRVSLGFSQKLAPELSLRGGYNWRKGEDDTQQSVSLALSLDF
notes: EstA, autotransporter esterase of P. aeruginosa PAO1; open reading frame amplified from PAO1 genomic DNA and cloned into pET26(b)+; Labelled with 10 nm colloidal gold for TEM; source: E. coli BL21(DE3), purified (Ni-NTA)
B2: recombinant OprD of P. aeruginosa PAO1, 6xHis-tagged (natural protein)
chain: DAFVSDQAEAKGFIEDSSLDLLLRNYYFNRDGKSGSGDRVDWTQGFLTTYESGFTQGTVGFGVDAFGYLGLKLDGTSDKTGTGNLPVMNDGKPRDDYSRAGGAVKVRISKTMLKWGEMQPTAPVFAAGGSRLFPQTATGFQLQSSEFEGLDLEAGHFTEGKEPTTVKSRGELYATYAGETAKSADFIGGRYAITDNLSASLYGAELEDIYRQYYLNSNYTIPLASDQSLGFDFNIYRTNDEGKAKAGDISNTTWSLAAAYTLDAHTFTLAYQKVHGDQPFDYIGFGRNGSGAGGDSIFLANSVQYSDFNGPGEKSWQARYDLNLASYGVPGLTFMVRYINGKDIDGTKMSDNNVGYKNYGYGEDGKHHETNLEAKYVVQSGPAKDLSFRIRQAWHRANADQGEGDQNEFRLIVDYPLSIL
notes: OprD (porin D, OccD1) of P. aeruginosa PAO1; open reading frame amplified from PAO1 genomic DNA and cloned into pET26(b)+; Labelled with 10 nm colloidal gold for TEM; also called porin D; OccD1; source: E. coli BL21(DE3), purified (Ni-NTA)
B3: recombinant Paf of P. aeruginosa, 6xHis-tagged (natural protein)
chain: EDGKRLRIGITLHPYYSYVSNIVGDKAEVVPLIPAGFNPHAYEPRAEDIKRIGTLDVVVLNGVGHDDFAERMIASSEKPGIPVIEANAKVPLLAATGMAARGAGKVVNPHTFLSISASITQVNTIARELGKLDPANAKAYTRNARAYAKRLRALRADALARLNKAPAADFRVATIHGAYDYLLREFGLEVTAVVEPAHGIEPSPSQLKKTIDQLKALDVKVIFSEIDFPSTYVETIQRESGVKLYSLSHISYGDYSAGKYEEEMARNLDTVVRAIQESGA

Assays:
Experiment in all cases: BLI; OctetRed96; bacterial proteins immobilised on AR2G sensors by amino coupling; laminin-111 as analyte, 1.63 to 100 nM in PBS; 30 °C
[1] = biological target: recombinant PA3923 of P. aeruginosa PAO1, 6xHis-tagged (P. aeruginosa PAO1) (UniProt Q9HX90)
[2] = biological target: recombinant OprG of P. aeruginosa PAO1, 6xHis-tagged (P. aeruginosa PAO1) (UniProt Q9HWW1)
[3] = biological target: T1, Engelbreth-Holm-Swarm murine sarcoma laminin-111 (mouse, UniProt P19137 25-3083; P02469 22-1786; P02468 34-1607); conditions: both partners purified
T1 construct: laminin alpha chain of laminin-111 (laminin subunit alpha-1), mouse; carries LG1-5 at its C-terminal end; laminin beta chain of laminin-111 (laminin subunit beta-1), mouse; laminin gamma chain of laminin-111 (laminin subunit gamma-1), mouse; Heterotrimer alpha/beta/gamma; Labelled with colloidal gold for the TEM experiment; also called L2020; source: bought: Sigma-Aldrich (L2020), …

Molecule | Kd [1] [nM] | Kd [2] [nM] | Kd [3] [nM]
Engelbreth-Holm-Swarm murine sarcoma laminin-111 (from UniProt P19137 25-3083; P02469 22-1786; P02468 34-1607) (complex) | 6.9 | 4.7 | 
B1 |  |  | 1.7
B2 |  |  | 22
B3 |  |  | 2.8
